Target: T1, HsRAD51(H294V) H294V (Homo sapiens) (UniProt Q06609)
T1 sequence: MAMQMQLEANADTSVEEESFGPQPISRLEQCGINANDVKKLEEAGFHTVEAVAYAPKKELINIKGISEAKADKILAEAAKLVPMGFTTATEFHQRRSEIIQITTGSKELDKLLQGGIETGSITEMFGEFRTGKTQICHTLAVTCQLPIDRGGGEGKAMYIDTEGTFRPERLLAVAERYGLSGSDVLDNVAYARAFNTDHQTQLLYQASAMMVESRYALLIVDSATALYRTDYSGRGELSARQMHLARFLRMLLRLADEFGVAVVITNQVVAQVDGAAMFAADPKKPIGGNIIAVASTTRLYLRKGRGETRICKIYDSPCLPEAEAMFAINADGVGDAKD
Experiment: SPR
Conditions: SPR (Biacore 3000): 20 mM HEPES pH 7.5, 10% glycerol, 1 mM DTT, 1 mM MgCl2, 0.005% P-20, 2.5 mM indicated nucleotide, 150 mM KCl when indicated (text: salt …)

Question: How did the Kd turn out when “TCGAGAGGGTAAACCACAATTATTGATATAAAATAGTTTTGGGTAGGCGA (double strand) [50 bp dsDNA]” was run?
Answer: Its Kd is 472 nM.

From PMC3155514
